Source: the supplement of paper PMC9876800

System: peptide library, one residue held at a place counted from the S/T acceptor
Test: relative phosphorylation of the sub-library (ratio to the mean residue at this position); human; higher = residue favoured
Method in brief: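 Relative sub-library phosphorylation is a ratio to the mean residue at the same position. Purified recombinant kinases were incubated under kinase-specific conditions with biotinylated degenerate peptide sub-libraries, each fixing one residue at one position around a central Ser/Thr, using 50 μM peptide and 50 μM ATP spiked with γ-32P-ATP for 90 min. Spots captured on streptavidin membranes were phosphorimaged and quantified by densitometry.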

Chain of NEK4, construct: Full length (P51957 whole entry, looked up): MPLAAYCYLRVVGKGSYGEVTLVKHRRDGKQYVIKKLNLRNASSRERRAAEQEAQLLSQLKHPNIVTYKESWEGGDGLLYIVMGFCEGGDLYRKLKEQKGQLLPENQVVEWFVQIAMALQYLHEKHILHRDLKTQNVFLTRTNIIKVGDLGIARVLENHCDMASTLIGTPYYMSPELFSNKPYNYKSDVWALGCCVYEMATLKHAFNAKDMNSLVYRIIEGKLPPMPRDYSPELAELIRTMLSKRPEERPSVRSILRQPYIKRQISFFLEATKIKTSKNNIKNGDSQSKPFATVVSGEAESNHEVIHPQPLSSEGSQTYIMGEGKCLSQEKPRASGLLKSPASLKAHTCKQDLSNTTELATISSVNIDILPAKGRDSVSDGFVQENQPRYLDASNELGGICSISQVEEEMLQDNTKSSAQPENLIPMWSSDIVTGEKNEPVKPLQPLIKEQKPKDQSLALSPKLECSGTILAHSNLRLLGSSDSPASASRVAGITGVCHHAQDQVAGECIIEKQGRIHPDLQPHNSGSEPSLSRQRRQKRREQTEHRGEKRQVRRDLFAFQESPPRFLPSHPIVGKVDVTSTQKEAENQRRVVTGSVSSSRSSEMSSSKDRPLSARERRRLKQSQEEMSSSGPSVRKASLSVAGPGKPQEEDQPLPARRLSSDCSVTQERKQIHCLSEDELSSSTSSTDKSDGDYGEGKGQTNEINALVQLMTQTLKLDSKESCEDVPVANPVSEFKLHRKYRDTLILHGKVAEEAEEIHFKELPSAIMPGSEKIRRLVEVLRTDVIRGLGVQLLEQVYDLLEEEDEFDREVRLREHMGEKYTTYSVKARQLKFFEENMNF
Chain of NEK1, construct: aa1-505 (Q96PY6 1-505, looked up): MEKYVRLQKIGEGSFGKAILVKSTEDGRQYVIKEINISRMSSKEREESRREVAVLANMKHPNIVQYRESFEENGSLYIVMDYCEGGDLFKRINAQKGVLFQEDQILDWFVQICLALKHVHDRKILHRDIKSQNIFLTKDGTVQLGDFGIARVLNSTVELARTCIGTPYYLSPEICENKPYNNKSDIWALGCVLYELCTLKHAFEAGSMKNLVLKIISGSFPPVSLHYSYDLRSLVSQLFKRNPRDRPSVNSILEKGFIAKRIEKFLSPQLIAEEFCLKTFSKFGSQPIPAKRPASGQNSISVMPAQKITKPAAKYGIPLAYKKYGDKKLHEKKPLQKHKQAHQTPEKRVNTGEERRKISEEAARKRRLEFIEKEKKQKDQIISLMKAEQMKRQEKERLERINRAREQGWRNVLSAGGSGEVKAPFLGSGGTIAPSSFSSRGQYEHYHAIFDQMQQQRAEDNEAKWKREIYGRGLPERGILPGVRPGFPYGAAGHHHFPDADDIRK

NEK1, construct: aa1-505 (from UniProt Q96PY6)
relative phosphorylation
Conditions | at +1 | at +2 | at +3 | at +4 | at -1 | at -2 | at -3 | at -4 | at -5
A fixed | 0.882 | 1.08 | 0.91 | 1.02 | 1.2 | 1 | 0.996 | 1.04 | 0.968
D fixed | 0.22 | 0.456 | 0.504 | 0.774 | 0.566 | 0.69 | 0.378 | 0.781 | 0.764
E fixed | 0.268 | 0.389 | 0.41 | 0.732 | 0.713 | 0.706 | 0.373 | 0.785 | 0.678
F fixed | 1.36 | 0.744 | 1.2 | 0.804 | 0.891 | 0.98 | 1.61 | 1.06 | 1.15
G fixed | 1.11 | 0.85 | 1.05 | 1.18 | 1.3 | 1.2 | 1.41 | 1.3 | 1.06
H fixed | 1.02 | 1.22 | 1.03 | 1.11 | 1.21 | 1.08 | 1.14 | 0.962 | 1.05
I fixed | 1.27 | 0.769 | 0.991 | 0.792 | 0.424 | 0.849 | 0.571 | 0.844 | 0.858
K fixed | 1.16 | 2.06 | 1.03 | 1.38 | 1.46 | 0.75 | 1.03 | 1.33 | 1.24
L fixed | 1.32 | 0.939 | 1.17 | 1 | 1.08 | 1.58 | 1.82 | 1.12 | 1.1
M fixed | 1.67 | 0.975 | 0.907 | 0.93 | 1.41 | 1.24 | 1.62 | 0.996 | 1.13
N fixed | 0.61 | 1.02 | 0.935 | 0.912 | 1.05 | 1.29 | 0.629 | 0.87 | 0.959
P fixed | 0.142 | 0.95 | 1.12 | 1.15 | 0.558 | 0.677 | 1.25 | 1.14 | 1.4
Q fixed | 1.05 | 0.706 | 0.724 | 1.01 | 0.889 | 1.04 | 0.668 | 0.799 | 0.889
R fixed | 1.51 | 2.21 | 1.63 | 1.38 | 1.57 | 1.27 | 0.919 | 1.08 | 1.15
V fixed | 0.958 | 0.914 | 0.851 | 0.78 | 0.522 | 0.713 | 0.444 | 0.783 | 0.82
W fixed | 1.27 | 0.727 | 1.37 | 1.29 | 0.895 | 1.04 | 1.08 | 1.23 | 0.947
Y fixed | 1.18 | 0.996 | 1.18 | 0.738 | 1.26 | 0.89 | 1.06 | 0.887 | 0.835
pThr fixed | 0.424 | 0.571 | 0.507 | 0.579 | 0.323 | 0.516 | 0.508 | 0.746 | 0.905
pTyr fixed | 0.397 | 0.434 | 0.642 | 0.547 | 0.707 | 0.523 | 0.648 | 0.851 | 1.03

NEK4, construct: Full length (from UniProt P51957)
relative phosphorylation
Conditions | at +1 | at +2 | at +3 | at +4 | at -1 | at -2 | at -3 | at -4 | at -5
A fixed | 0.695 | 0.961 | 0.797 | 0.821 | 1.32 | 0.985 | 1.18 | 1.02 | 0.983
D fixed | 0.169 | 0.409 | 0.375 | 0.693 | 0.63 | 0.601 | 0.422 | 0.811 | 0.797
E fixed | 0.153 | 0.368 | 0.341 | 0.66 | 0.638 | 0.505 | 0.416 | 0.733 | 0.662
F fixed | 1.03 | 0.851 | 1.73 | 1.03 | 0.868 | 1.16 | 1.64 | 1.14 | 1.21
G fixed | 0.921 | 0.795 | 0.91 | 1.16 | 1.25 | 1.16 | 1.2 | 1.32 | 1.04
H fixed | 0.775 | 1.2 | 1.1 | 1.08 | 1.02 | 1.02 | 0.998 | 1.05 | 1.03
I fixed | 1.63 | 0.625 | 0.899 | 0.69 | 0.583 | 0.8 | 0.658 | 0.754 | 0.822
K fixed | 0.974 | 2.01 | 0.977 | 1.56 | 1.4 | 0.902 | 0.985 | 1.17 | 1.16
L fixed | 2.19 | 0.939 | 1.23 | 0.996 | 1.06 | 1.61 | 1.9 | 1.12 | 0.79
M fixed | 2.2 | 1.04 | 1.07 | 0.932 | 1.36 | 1.47 | 1.72 | 0.969 | 0.966
N fixed | 0.592 | 0.86 | 0.652 | 0.92 | 0.935 | 1.43 | 0.674 | 0.913 | 0.962
P fixed | 0.176 | 0.993 | 1.03 | 1.28 | 0.374 | 0.588 | 0.973 | 0.912 | 1.22
Q fixed | 1.02 | 0.971 | 0.842 | 1.08 | 1.09 | 1.01 | 0.766 | 0.916 | 0.983
R fixed | 1.17 | 2.43 | 1.25 | 1.31 | 1.77 | 1.07 | 0.953 | 1.04 | 1.32
V fixed | 0.929 | 0.838 | 0.74 | 0.653 | 0.666 | 0.677 | 0.573 | 0.835 | 0.878
W fixed | 1.44 | 0.722 | 1.62 | 1.25 | 0.925 | 1.18 | 1.02 | 1.31 | 1.11
Y fixed | 0.937 | 0.986 | 1.44 | 0.891 | 1.09 | 0.832 | 0.921 | 1 | 1.08
pThr fixed | 0.423 | 0.506 | 0.526 | 0.476 | 0.332 | 0.64 | 0.735 | 0.793 | 0.867
pTyr fixed | 0.248 | 0.588 | 0.557 | 0.506 | 0.752 | 1.11 | 0.806 | 0.755 | 1.01
